Among the data in paper doi:10.1101/699967 (bioRxiv, 2019) are EC50 values, retold here.

This experiment addresses HaloTag-Brd4-BD1_BD2-NanoLuc (aa 44-460) (human, UniProt O60885 44-460, HaloTag NanoBRET 618 fluorescent ligand on the HaloTag (experimental samples)). The experiment is described as follows: FRET or BRET. (Bioluminescence resonance energy transfer reports proximity on the nanometre scale.)

As usually defined, the EC50 is the concentration giving half of the maximal effect. A higher EC50 goes with weaker potency.

For SGRGKGGKGLGKGGAKRHR (acetyl-lysine at 5, 8 and 16) [H4(1-19)K5/8/16-triacetyl histone peptide], the response was half-maximal at 7.5 ± 3.5 µM (EC50).
